The results in this text go back to patent US20260242419A1, “A CYCLIC PEPTIDE FOR TRAPPING INTERLEUKIN-1 BETA” (Merck Sharp & Dohme LLC, priority 2023, published 2026).

Starred links: 1 amine or outer side, 2 acyl side, 3 side chain; linkers in the order of their positions; H or OH if unused. Non-standard residues stand in square brackets, D forms with d. dProc4CH21Naph4F = (2R,4R)-4-[(4-fluoro-1-naphthyl)methyl]pyrrolidine-2-carboxylic acid, O=C([C@H]1C[C@@H](Cc2ccc(F)c3ccccc23)CN1[*:1])[*:2]; Bip4CONMe2 = (2S)-2-amino-3-[4-[4-(dimethylcarbamoyl)phenyl]phenyl]propanoic acid, CN(C)C(=O)c1ccc(-c2ccc(C[C@H](N[*:1])C(=O)[*:2])cc2)cc1; dProc3Bn4Cl = (2R,3S)-3-[(4-chlorophenyl)methyl]pyrrolidine-2-carboxylic acid, O=C([C@H]1[C@@H](Cc2ccc(Cl)cc2)CCN1[*:1])[*:2]; dProc4Bn4Cl = (2R,4R)-4-[(4-chlorophenyl)methyl]pyrrolidine-2-carboxylic acid, O=C([C@H]1C[C@@H](Cc2ccc(Cl)cc2)CN1[*:1])[*:2]; TyrEtNAc = (2S)-3-[4-(2-acetamidoethoxy)phenyl]-2-amino-propanoic acid, CC(=O)NCCOc1ccc(C[C@H](N[*:1])C(=O)[*:2])cc1; dProc3CH24Pal = (2R,3S)-3-(4-pyridylmethyl)pyrrolidine-2-carboxylic acid, O=C([C@H]1[C@@H](Cc2ccncc2)CCN1[*:1])[*:2]; 4PyrimAla = (2S)-2-amino-3-pyrimidin-4-yl-propanoic acid, O=C([C@H](Cc1ccncn1)N[*:1])[*:2]; Phe4pcCCA = (1R,4s)-4-(4-((S)-2-amino-2-carboxyethyl)phenyl)cyclohexane-1-carboxylic acid; Phe(4-(5-CO2H-2-pyrimidyl)) = N[C@@H](Cc1ccc(-c2ncc(C(=O)O)cn2)cc1)C(=O)O; Phe(4-(4-Ac-piperazinyl)) = CC(=O)N1CCN(c2ccc(C[C@H](N)C(=O)O)cc2)CC1; dPro(4R-(4-pyridylmethyl)) = O=C(O)[C@H]1C[C@@H](Cc2ccncc2)CN1; Trp(βS-Me,4-F) = C[C@@H](c1c[nH]c2cccc(F)c12)[C@H](N)C(=O)O; Bip(4'-CONH2) = NC(=O)c1ccc(-c2ccc(C[C@H](N)C(=O)O)cc2)cc1; Bip(4'-COOH) = N[C@@H](Cc1ccc(-c2ccc(C(=O)O)cc2)cc1)C(=O)O; Ala(1-bicyclo(1.1.1)pentyl) = N[C@@H](CC12CC(C1)C2)C(=O)O; dPro(4R-Bzl(4-F)) = O=C(O)[C@H]1C[C@@H](Cc2ccc(F)cc2)CN1; dPro(3S-(4-F-Bn)) = O=C(O)[C@@H]1NCC[C@@H]1Cc1ccc(F)cc1; Bip(4'-Cl) = N[C@@H](Cc1ccc(-c2ccc(Cl)cc2)cc1)C(=O)O; Ala(pyrimidin-5-yl) = N[C@@H](Cc1cncnc1)C(=O)O; Phe(4-COOH) = N[C@@H](Cc1ccc(C(=O)O)cc1)C(=O)O; Bip = N[C@@H](Cc1ccc(-c2ccccc2)cc1)C(=O)O; Pro(cis-4-F) = O=C(O)[C@@H]1C[C@H](F)CN1; Ala(4-THP) = N[C@@H](CC1CCOCC1)C(=O)O; d(αMeD) = C[C@@](N)(CC(=O)O)C(=O)O; 4Pal = N[C@@H](Cc1ccncc1)C(=O)O; aThr = C[C@H](O)[C@H](N)C(=O)O; d(αMeS) = C[C@@](N)(CO)C(=O)O; Cba = N[C@@H](CC1CCC1)C(=O)O; Dab = NCC[C@H](N)C(=O)O; Aib = CC(C)(N)C(=O)O; Sar = CNCC(=O)O

In the experiment the target is Recombinant human IL-1β (BioLegend 579404) (human, UniProt P01584 117-269). The experiment in a line: cell-based or functional assay.

B1: SEQ ID NO 350 (peptide)
peptide: cyclo([Phe(4-(4-Ac-piperazinyl))][4Pal][Phe(4-COOH)]G[Pro(cis-4-F)][Trp(βS-Me,4-F)][Aib]SW[d(αMeS)][Ala(pyrimidin-5-yl)]Q[Dab]G[dPro(4R-(4-pyridylmethyl))])
modifications: ring closure inferred
With B1, the “MRC5 IC50” value was 20 pM.

B2: SEQ ID NO 347 (peptide)
peptide: cyclo([Bip(4'-COOH)][4Pal][Phe(4-COOH)]G[Pro(cis-4-F)][Trp(βS-Me,4-F)][Aib]SW[d(αMeS)]LQ[Dab]G[dPro(4R-(4-pyridylmethyl))])
modifications: ring closure inferred
Consider B2, for which the “MRC5 IC50” value is 25 pM.

B3: SEQ ID NO 344 (peptide)
peptide: cyclo([Bip(4'-Cl)][4Pal][Phe(4-COOH)]G[Pro(cis-4-F)][Trp(βS-Me,4-F)][Aib]SW[d(αMeD)][Ala(pyrimidin-5-yl)]Q[Dab]G[dPro(4R-(4-pyridylmethyl))])
modifications: ring closure inferred
B3: the “MRC5 IC50” value is 22 pM.

B4: SEQ ID NO 336 (peptide)
peptide: cyclo([TyrEtNAc][4Pal][Phe(4-COOH)]G[Pro(cis-4-F)][Trp(βS-Me,4-F)][Aib]EW[Aib]FQ[Dab]G[dPro(4R-(4-pyridylmethyl))])
modifications: ring closure inferred
For B4, the “MRC5 IC50” value was determined as 23 pM.

B5: SEQ ID NO 334 (peptide)
peptide: cyclo([Phe4pcCCA][Ala(1-bicyclo(1.1.1)pentyl)][Phe(4-COOH)]G[Pro(cis-4-F)][Trp(βS-Me,4-F)][Aib]SW[d(αMeD)][aThr]Q[Dab]G[dPro(4R-(4-pyridylmethyl))])
modifications: ring closure inferred
For the molecule B5, the “MRC5 IC50” value was found to be 22 pM.

B6: SEQ ID NO 332 (peptide)
peptide: cyclo([Bip(4'-COOH)][4Pal][Phe(4-COOH)]G[Pro(cis-4-F)][Trp(βS-Me,4-F)][Aib]SW[d(αMeD)][4PyrimAla]Q[Dab]G[dPro(4R-Bzl(4-F))])
modifications: ring closure inferred
For B6, the “MRC5 IC50” value came out at 13 pM.

B7: SEQ ID NO 341 (peptide)
peptide: cyclo([Bip4CONMe2][Ala(1-bicyclo(1.1.1)pentyl)][Phe(4-COOH)]G[Pro(cis-4-F)][Trp(βS-Me,4-F)][Aib]SW[d(αMeD)][Ala(pyrimidin-5-yl)]Q[Dab]G[dPro(4R-(4-pyridylmethyl))])
modifications: ring closure inferred
Turning to B7, the “MRC5 IC50” value is 24 pM.

B8: SEQ ID NO 352 (peptide)
peptide: cyclo([Bip(4'-COOH)][4Pal][Phe(4-COOH)]G[Pro(cis-4-F)][Trp(βS-Me,4-F)][Aib][aThr]W[d(αMeS)][aThr]Q[Dab]G[dPro(4R-(4-pyridylmethyl))])
modifications: ring closure inferred
With B8, the “MRC5 IC50” value is 23 pM.

B9: SEQ ID NO 328 (peptide)
peptide: cyclo([Bip(4'-COOH)][4Pal][Phe(4-COOH)]G[Pro(cis-4-F)][Trp(βS-Me,4-F)][Aib]SW[d(αMeD)][Ala(pyrimidin-5-yl)]Q[Dab]G[dProc3CH24Pal])
modifications: ring closure inferred
Regarding B9, the “MRC5 IC50” value was 8 pM.

B10: SEQ ID NO 343 (peptide)
peptide: cyclo([Bip][Ala(1-bicyclo(1.1.1)pentyl)][Phe(4-COOH)]G[Pro(cis-4-F)][Trp(βS-Me,4-F)][Aib]SW[d(αMeD)][Ala(pyrimidin-5-yl)]Q[Dab]G[dPro(4R-(4-pyridylmethyl))])
modifications: ring closure inferred
On to B10, for which the “MRC5 IC50” value was 26 pM.

B11: SEQ ID NO 329 (peptide)
peptide: cyclo([Bip(4'-COOH)][4Pal][Phe(4-COOH)]G[Pro(cis-4-F)][Trp(βS-Me,4-F)][Aib]SW[d(αMeD)][Ala(pyrimidin-5-yl)]Q[Dab]G[dProc4Bn4Cl])
modifications: ring closure inferred
In the case of B11, the “MRC5 IC50” value stood at 9 pM.

B12: SEQ ID NO 342 (peptide)
peptide: cyclo([Bip(4'-CONH2)][Ala(1-bicyclo(1.1.1)pentyl)][Phe(4-COOH)]G[Pro(cis-4-F)][Trp(βS-Me,4-F)][Aib]SW[d(αMeD)][Ala(pyrimidin-5-yl)]Q[Dab]G[dPro(4R-(4-pyridylmethyl))])
modifications: ring closure inferred
Consider B12, for which the “MRC5 IC50” value came to 22 pM.

B13: SEQ ID NO 348 (peptide)
peptide: cyclo([Bip(4'-COOH)][Ala(1-bicyclo(1.1.1)pentyl)][Phe(4-COOH)]G[Pro(cis-4-F)][Trp(βS-Me,4-F)][Aib]SW[d(αMeD)][Cba]Q[Dab]G[dPro(4R-(4-pyridylmethyl))])
modifications: ring closure inferred
Regarding B13, the “MRC5 IC50” value was 18 pM.

B14: SEQ ID NO 331 (peptide)
peptide: cyclo([Bip(4'-COOH)][4Pal][Phe(4-COOH)]G[Pro(cis-4-F)][Trp(βS-Me,4-F)][Aib]SW[d(αMeD)][Ala(pyrimidin-5-yl)]Q[Dab]G[dPro(3S-(4-F-Bn))])
modifications: ring closure inferred
Consider B14, for which the “MRC5 IC50” value worked out at 11 pM.

B15: SEQ ID NO 351 (peptide)
peptide: cyclo([Phe(4-(5-CO2H-2-pyrimidyl))][4Pal][Phe(4-COOH)]G[Pro(cis-4-F)][Trp(βS-Me,4-F)][Aib]SW[d(αMeD)][Ala(4-THP)]Q[Dab]G[dPro(4R-(4-pyridylmethyl))])
modifications: ring closure inferred
With B15, the “MRC5 IC50” value amounted to 16 pM.

B16: SEQ ID NO 353 (peptide)
peptide: cyclo([Bip(4'-COOH)][4Pal][Phe(4-COOH)]G[Pro(cis-4-F)][Trp(βS-Me,4-F)][Aib][aThr]W[d(αMeD)][Ala(4-THP)]Q[Dab]G[dPro(4R-(4-pyridylmethyl))])
modifications: ring closure inferred
B16: the “MRC5 IC50” value amounted to 17 pM.

B17: SEQ ID NO 338 (peptide)
peptide: cyclo([Bip4CONMe2][4Pal][Phe(4-COOH)]G[Pro(cis-4-F)][Trp(βS-Me,4-F)][Aib]SW[d(αMeS)][Ala(pyrimidin-5-yl)]Q[Dab]G[dPro(4R-(4-pyridylmethyl))])
modifications: ring closure inferred
As for B17, the “MRC5 IC50” value was 18 pM.

B18: SEQ ID NO 345 (peptide)
peptide: cyclo([Bip(4'-COOH)][4Pal][Phe(4-COOH)]G[Pro(cis-4-F)][Trp(βS-Me,4-F)][Aib]EW[Aib][4PyrimAla]Q[Dab]G[dPro(4R-Bzl(4-F))])
modifications: ring closure inferred
Regarding B18, the “MRC5 IC50” value came to 12 pM.

B19: SEQ ID NO 337 (peptide)
peptide: cyclo([Bip(4'-COOH)][4Pal][Phe(4-COOH)]G[Pro(cis-4-F)][Trp(βS-Me,4-F)][Aib]SW[d(αMeD)][aThr]Q[Dab][Sar][dPro(4R-(4-pyridylmethyl))])
modifications: ring closure inferred
As for B19, the “MRC5 IC50” value was 22 pM.

B20: SEQ ID NO 346 (peptide)
peptide: cyclo([Bip(4'-COOH)][4Pal][Phe(4-COOH)]G[Pro(cis-4-F)][Trp(βS-Me,4-F)][Aib]EW[Aib][Ala(pyrimidin-5-yl)]Q[Dab]G[dPro(3S-(4-F-Bn))])
modifications: ring closure inferred
With B20, the “MRC5 IC50” value came to 10 pM.

B21: SEQ ID NO 330 (peptide)
peptide: cyclo([Bip(4'-COOH)][4Pal][Phe(4-COOH)]G[Pro(cis-4-F)][Trp(βS-Me,4-F)][Aib]SW[d(αMeD)][Ala(pyrimidin-5-yl)]Q[Dab]G[dProc3Bn4Cl])
modifications: ring closure inferred
For the molecule B21, the “MRC5 IC50” value came out at 8 pM.

B22: SEQ ID NO 340 (peptide)
peptide: cyclo([Bip][4Pal][Phe(4-COOH)]G[Pro(cis-4-F)][Trp(βS-Me,4-F)][Aib]SW[d(αMeS)][Ala(pyrimidin-5-yl)]Q[Dab]G[dPro(4R-(4-pyridylmethyl))])
modifications: ring closure inferred
For B22, the “MRC5 IC50” value stood at 21 pM.

B23: SEQ ID NO 333 (peptide)
peptide: cyclo([Bip][4Pal][Phe(4-COOH)]G[Pro(cis-4-F)][Trp(βS-Me,4-F)][Aib]SW[d(αMeD)][Ala(pyrimidin-5-yl)]Q[Dab]G[dPro(4R-(4-pyridylmethyl))])
modifications: ring closure inferred
Turning to B23, the “MRC5 IC50” value was determined as 22 pM.

B24: SEQ ID NO 349 (peptide)
peptide: cyclo([Bip(4'-COOH)][Ala(1-bicyclo(1.1.1)pentyl)][Phe(4-COOH)]G[Pro(cis-4-F)][Trp(βS-Me,4-F)][Aib]SW[d(αMeD)]LQ[Dab]G[dPro(4R-(4-pyridylmethyl))])
modifications: ring closure inferred
On to B24, for which the “MRC5 IC50” value was 17 pM.

B25: SEQ ID NO 335 (peptide)
peptide: cyclo([Phe4pcCCA][Ala(1-bicyclo(1.1.1)pentyl)][Phe(4-COOH)]G[Pro(cis-4-F)][Trp(βS-Me,4-F)][Aib]SW[d(αMeD)][Ala(pyrimidin-5-yl)]Q[Dab]G[dPro(4R-(4-pyridylmethyl))])
modifications: ring closure inferred
On to B25, for which the “MRC5 IC50” value stood at 22 pM.

B26: SEQ ID NO 339 (peptide)
peptide: cyclo([Bip(4'-CONH2)][4Pal][Phe(4-COOH)]G[Pro(cis-4-F)][Trp(βS-Me,4-F)][Aib]SW[d(αMeS)][Ala(pyrimidin-5-yl)]Q[Dab]G[dPro(4R-(4-pyridylmethyl))])
modifications: ring closure inferred
On to B26, for which the “MRC5 IC50” value came to 24 pM.

B27: SEQ ID NO 327 (peptide)
peptide: cyclo([Bip(4'-COOH)][4Pal][Phe(4-COOH)]G[Pro(cis-4-F)][Trp(βS-Me,4-F)][Aib]SW[d(αMeD)][Ala(pyrimidin-5-yl)]Q[Dab]G[dProc4CH21Naph4F])
modifications: ring closure inferred
B27: the “MRC5 IC50” value was found to be 16 pM.
